Experimental data as given in publication PMC12598616, “Design and optimization of caspase-1-responsive fluorescent probes for pyroptosis imaging and anti-pyroptosis drug screening” (Chemical Science, 2025).

Tested on: THP-1 cells
Experiment: Cytotoxicity assay (CCK-8)
Type: cell-based
Settings: CCK-8, 0–50 μM, 12 h, 37 °C
Method: Cytotoxicity assay (CCK-8)
The cytotoxicity of FPy1 and YPy1 to THP-1 was evaluated by cell counting kit-8 (CCK-8). Briefly, the THP-1 cells were seeded in 96-well plates (5000 cells/well) and cultured at 37 °C for 24 hours. Various concentrations of FPy1 or YPy1 (0, 2.5, 5, 10, 20, 30, 40, 50 μM) in RPMI 1640 medium were added, and the cells were kept incubation for 12 hours. Then, the cells were washed with PBS and incubated in the 100 μL fresh medium with 10 μL CCK8 dye for an additional 2 hours. The absorbance was measured at 450 nm using a Tecan Infinite M1000 Multi-function microplate reader, and cell viability was calculated using the formula:
Cell viability (%) = [(OD test-ODblank)/(ODcontrol-ODblank)] ×100%
Intracellular imaging with FPy1 in THP-1 cells
THP-1 cells were seeded in dishes and cultured overnight. […] The fluorescence imaging was performed under the excitation at 514 nm with signal collection in the range […]
for 4 hours, the cells were further treated with Nig (10 μM) for 2 hours. […] The distribution of FPy1 was analyzed by collecting organelle-specific dye fluorescence at 495-525 nm with 488 nm excitation, while simultaneously detecting FPy1 fluorescence at 530-610 nm with 514 nm excitation. […]
Nucleus pulposus cells were isolated from discs and resuspended in 1mL DMEM/F12 medium containing 10 μM ITS-A. A total of […] were counted and transferred into centrifuge tubes. […]

Substance	cytotoxicity towards THP-1 cells
–FLTDG– [FPy1, RhoB donor, hNR quencher]	low cytotoxicity
–YVADG– [YPy1, caspase-1-responsive FRET probe with recognition peptide –YVADG–; RhoB donor, hNR quencher]	low cytotoxicity
